Results on 18 sequences are retold here after a protein production outcome set (Wang et al. 2014).
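Also: failed if final PepcDB status was selected cloned or expressed and not failed if soluble or beyond.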

The nature of this series: label from the status in PepcDB records.
As for “MNEFEDLLNSVSEVNPGDVVTAEVLTVDNGQANVVIEGTGVEGVLTLRELTNDRDADINDFVKAGDTVEVLVLRQVVGKDTDTVTFLVSKKRLEARKAWDKLVGREGEVVTVKGTRAVKGGLSVEFEGLRGFIPASMIDTRFVRNTEKFVGQEFDAKIKEVDAAENRFILSRREVIEEAAKEARAEVFSKISEGAVVTGTVARLTSFGAFIDLGGVDGLVHVTELSHERNVSPKSVVSVGEEVEVKVLSIDEEAGRVSLSLKATTPGPWDGVEQKLAQGDVVEGKVKRLTDFGAFVEVLPGIDGLVHISQISHKRVENPKDVLSVGQEVTVKVLEVNAADERVSLSIKALEERPAQAEGDNKEEKRQSRPRRPKRESRRDYELPETQTGFSMADLFGDIEL”, the protein production result was “failed”.

On to “MNEFTAVKELSEKLLEDYKTESSFFFASPTRTILAEGEFTTVKHHEIESFPELVQAVLRNAKQAGNPNPIVVGALPFDRRKEVQLIVPEYSRISERLQLDPTNHLEINRNLTFEMTPVPDHEVYMKGVKQGIEKIKDGDLKKIVLSRSLDVKSSGKIDKQKLLRELAEHNKHGYTFAVNLPKDENENSKTLIGASPELLVSRHGMQVISNPLAGSRPRSDDPVEDKRRAEELLSSPKDLHEHAVVVEAVAAALRPYCHTLYVPEKPSVIHSEAMWHLSTEVKGELKNPNTSSLELAIALHPTPAVCGTPMEEAREAIQKIEPFDREFFTGMLGWSDLNGDGEWIVTIRCAEVQENTLRLYAGAGVVAESKPEDELAETSAKFQTMLKALGLNDSSLNEK”, for which the protein production result is “not failed”.

As to “MNELPIILLSPLIGGALAWLIRVKGIREAIGVVSSAIPLYFLIKLYPALEGEPIRYSLNVGGFELTLALSHISWIFAMIAAVVGLSAVLGLVSTAKDSNEWLFALMSLAGALGVFLANDFVVFFLSWEIMTFASFMMVFKYNRHASLKYFVLSIAGAYAMLLAIGIIYAKTGSLSFPEISAIFRQDAMMGMMGGGGVFTKTETLLIYALFLVAFGVKAGMFPLHVWAPDAYSETNQSYTAMFSGVLSKTGVYGFFLLYLLMYGKLAITLGNVRSAPTFGYIIAFLGGLTIMVGGILAALQEDIRKLFAYSSISQIGYILIGLGIGTPLGIAAATYHAISHALFKGLFFLIVATIIYRTGKTEFKDYGGLAEKMPITFAMAFVAILSLAGIPPMAGFASKWLIFEAVISRNLPILGAMVFFGSAIGFVYLIRFTYAVWFGQRPSDLEDVKDAPLPLAIGMGILAILNVIFGVAPGLVARELNKLFSNPPIGGTIWELDLGFGRYNGLLLSIWLVIGLIIAAILYFMGAGVRKVPVTDTYQSGNPVTMEYNLTIRRNFFLPLKEAMAFWLKMSFDRLYHDIWKAIEELADLARSYVYNGNIQAYAWYLAIILLILVAMGV”, the protein production result is “failed”.

“MNENHLLDLEEQKTDLGRVEISPEVIEVIAGIAASEVEGVATMRGNFAAGVAEKLGYKNHGKGVKVDLNDEGIIVDVSVIILYGVSVPEVAKKIQQNIKQALQTMTAIELQSINVHIVGVHFEAVDGEEETKLEHHHHHH”: the protein production entry is reported as “failed”.

Take “MNEQRLSMRLERVATHVPAGARLADIGSDHGYLPVALLNRGAVSAAVAGEVALTPFYAAERTVRENDLDQQISVRLADGLAAIEPTDRITAISLCGMGGETIRDILESGKARLSGQERLILQPNGGEQPLRVWLMEHNYRILDEEVLRENRFDYEIIVAERTGPMIYTAEQLYFGPIQMQTRSPAFLLKWQRLLGKKHKALSNFARARKAVPEEKMQDLAQQIRWITALLN”: the protein production result is given as “failed”.

On to “MNFDRIFAWPLTSLEVFMNLALPSQYQFLPRFFRLATIAVLSNMMVPLAGLVDTAFLGHLEDIDYLAGVILGSILFDYLYRVLKFLRTSTTALTAQAVGEEDQAEVWVAGLRSALVALLLGLGILALQYPLQKFGFALLTGAPGVEQSGMDYFYGRIWGAPAVLLNFVILGWLLGQERNGLVLLISLVANFSNVGLDYLMINRWGWASAGAGWATASSQYLALALGLISIVVLAQGEKEKGEFKAAIAKLSDWGALRATIALKGNILIRFVILITTYSLFTNISSSFGTEVLAQNGLLLQIALLSQFTIQGVGMTSQTLTGNFKSKGEYQLLLPVLLTAIVTTLLMALGFAAVAIAFPETLFGLLTNHAEINDSVRQYTIWLIPLLESTALAFMLEAYFIGLKASQPLRNGVLFAFFGIYLPCLGLAIWQQSNNLLWFSLVSYMLGLVVYLGWQLLTRFSPQTLALESKQPS”, for which the protein production result is on record as “failed”.

In the case of “MNFIQSNLNNLLAIAWFALCWGGYTRYAIWKGRDTACLASVLHLYREDWMRRMLLRDNRIADASVIGNLERNASFFASSTLIILAGILTVLGASDRALSLLADLPLVQQTSQGMSEIKLLCLAMVFVYAFFTFSWCMRQYNFAAVLVGSAPMIGERLVNELERKAFASRAARVLSLAANQFNLGLRSYYFGMAMLSWFISPWLFMAMSVGVVLILYRREFHSDVLDVMVFTPTESVLSEPAKESSVVSN”, the protein production result is “failed”.

In the case of “MNFISDQVKKLSSSTPEEPDHNKPVEGTETATRPATNAELMASAKVVAEAAQAAARNESDKLDKGKVAGASADILDAAEKYGKFDEKSSTGQYLDKAEKYLNDYESSHSTGAGGPPPPTSQAEPASQPEPAAKKDDEESGGGLGGYAKMAQGFLK”, the protein production result is “failed”.

In the case of “MNFIVIGAGNIGSGIAQNLLEDGHEVEIADKSRESLNRIRGRNPKIRTREFDVMDRSAYRMLNDYDASVSALPGSIGMQFLKNVAKMGKIVVDVSYMEEDPYDLNGIAQSAGTIIVPDMGFAPGLTNAIVGYFSADLDQIRNVKIYVGGIPEKPVPPLDYTITWSVEG”, the protein production entry is recorded as “failed”.

As for “MNFLSIFVLIPLLMLAGLWAARGIKAIRGVMVTGASALLIASVVLTFMYLGERSAGNTAEMLFRADTLWYAPLHISYSVGVDGISVAMLLLSAVIVFTGTFASWRLQPLTKEYFLWFTLLSMGVFGFFISIDLFTMFMFYEIALIPMYLLIGVWGSGRKEYAAMKLTLMLMGGSAFLLIGILGIYFGSGATTMNLLEIAQLHNIPFAQQCIWFPLTFLGFGVLGALFPFHTWSPDGHASAPTAVSMLHAGVLMKLGGYGCFRIAMYLMPEAANELSWIFLILTGISVVYGAFSACVQTDLKYINAYSSVSHCGLVLFAILMLNQTAATGAILQMLSHGLMTALFFALIGMIYGRTHTRDVRELTGLMKVMPFLSVCYVIAGLANLGLPGLSGFIAEMTIFVGSFQNNDVFHRTLTIIACSSIVITAVYILRLVGKILYGTCTNKHHLALTDATWDERVAVICLIVCVAGLGMAPFWVSHMIGESVLPVVSQLIP”, the protein production entry is on record as “failed”.

On to “MNFNQFENQNFFNGNPSDTFKDLGKQVFNYFSTPSFVTNIYETDELYYLEAELAGVNKEDISIDFNNNTLTIQATRSAKYKSEQLILDERNFESLMRQFDFEAVDKQHITASFENGLLTITLPKIKPSNETTSSTSIPIS”, for which the protein production result was “failed”.

As to “MNFNYQTAWPSLSRSFEWSPAMTSSSVNPAEKFDRSRADEYARQSRIALAGYDACHDLAACMLAASLGEGRAAHILAVGAGGTAQEIIAMASLEPGWRFTAVDPSAPMLETARQQLQAQGLLERTEVRLATVDELAADEPFDGATLIGVLHHLPGDEAKRQLLRAIARRLKPGAPLIVAGNHYAYAGQPLLLAAWGQRWRQQGATADEVHAKLGKILQGADPPHSEAAVQRLLEEGGFSAGTRFFSSLFWGAWLSRKRC”, the protein production result is on record as “failed”.

For “MNFSESFKLSGLLCRFSPDGKYLASCVQYRLVIRDVTTLQILQLYTCLDQIQHIEWSADSLFILCAMYRRGLVQVWSLEQPEWHCKIDEGSAGLVASCWSPDGRHILNTTEFHLRITVWSLCTKSVSYIKYPKACQQGLTFTRDGRYLALAERRDCRDYVSIFVCSDWQLLRHFDTDTQDLTGIEWAPNGCVLAAWDTCLEYKVLLYSLDGRLLSAYCAYEWSLGIKSVAWSPSSQFLAIGSYDGKVRLLNHVTWKMITEFGHPATINNPKTVVYKEAEKSPLLGLGHLSFPPPRAMAGALSTSESKYEIASGPVSLQTLKPVADRANPRMGVGMLAFSSDSYFLASRNDNVPNAVWIWDIQKLKLFVVLEHMSPVRSFQWDPQQPRLAICTGGSKVYLWSPAGCVSVQVPGEGDFPVLGLCWHLSGDSLALLSKDHFCLCFLETKERVGTAYEQRDGMPRT”, the protein production entry was “failed”.

On to “MNFVELAKKRYSCRNYQDRKVEKEKLEKVLDVARIAPTGGNRQPQRLIVIQEKEGINKLSKAANIYDAPLAILVCGDKDKVWTRPFDGKQLTDIDTSIVTDHMMLQATELGLASVWVCYFNPDIIREEFSLPDNLEPINILLMGYESKIPESPERHEKTRVPLSEIVSYETL”, for which the protein production entry is given as “failed”.

For “MNFVLSDVADAEAEKAIRDPLVAYNLARFGESDKRDLNITIRNDDNSVTGGLVGHTARGWLYVQLLFVPEAMRGQGIAPKLLAMAEEEARKRGCMGAYIDTMNPDALRTYERYGFTKIGSLGPLSSGQSITWLEKRF”, the protein production result was “not failed”.

As for “MNGKLNLPINTVIGVSLLVLLLVPALYFAKPVLLPMVISTFVALLFSPLINYFEDKGLPRTITVVVTLTLLVSVSILGLAAISEPAKQWWAELPSIVQNVSQEVNEVTKASSEHMNAPLELASDMNIDEMGNNTVFSLLKALATTTPTLLTQAMIVLFMVYFMLNHGRSLFRKSVSRLRGFSKQRQAVELVQALQKDLSRYIGTITLVNAGLGLCVGLVFFVLGLEDPFLWGAFAGVMNFAPYLGPVISMASFGFVAYLQLDSVSFMLTVVSIYLLLNLIESQFVTPTLLGRRFNLNPLVIFMWLVFWGWLWGGMGLLIGVPLLVCINILADRLALCGSTNI”, the protein production entry is recorded as “failed”.

For the sequence “MNGMGGALRAASGKLNGLLNFARQLAFVKLFGVYLPRNNQFNNATACADLLCKAEVIPGSESHFRPRRQPDASGAASGIAGRQSAGASGARQQSSNEENHDARRHGRRGRVHRDRAFRNRMRGERSARRHRSGIGRLIRRALRSRAAHGIARRRVSRAIAGGVGRGRPGRGHDARGGDAGRRRRDGRAIRAAAGCGHARAGRARAGHAHVGRARVRRHDSRRFVAMGEYGGLAARLGCARRFQHRCAGDAARLVRGCAAGARREPRPHVRADPGDSLSRQSRVARCRARSGLMRVLFAISLLAVAWLAGCTGLRGGIERDARRESNESAALFKRASDGDNSVHALAPVVVDDGLWVSAGAVKLRSGEQLPPLFDEPASFDRAVSSLSEFAEQITRLTQVPTQVAASAQQAAARSQQGGGADGAARSAPVFLDAAGARSTPPLPPGMPGGASAGGGKAGGSGAGPDGGAGTSFAPVRIVYAGGTLRGLLDAACARFGVFWKYEQGTIRFFFTDTRTFQVNAIPGDSSLNASVVSGATSDGTSGGSQSGGSGGGINGASGGTTGLTANNTANTAVNSQLSVFNGLQSAIQSMLSRYGSSVSSPATGSISVTDTPDVLERVAAFMTQQNRSLSRQVLLNVTVLSVSLKAGDAYGIDWSLVYKTMSAGFNITNPFNPVSLTKPADLSATVLSPTSRFNGTKLLIRALSQQGTVRRKTSASVTTLNNQPVPVQVATQTGYLASVSTTNTANVGSSTALTPGVVTTGFNMTLLPHVLDDGTVMLQFSTNISSLLQLKEVSSSTGGRSAARIQTPDVDMRNFLQRVAMKSGETLVISGYEGANDSLDERGVGTPKMIALGGGYEAQRAREVIVILITPVTQRGGA”, the protein production entry is on record as “failed”.

Turning to “MNGPAYEGGFKKFINGEFRMKAEKNLNKTRNISYAGLFFSLALTIFKLFAGLLGHSTALLADAVRSFSELINELVKLLDLSIAGKPEDWSHNYGHGKVATLVTGAGACVLLFAGIQSASLASGELLMFIQGKETEAPELFALSAAAFALVSKEIIPLFSRLAWKQTDKSLSETDIYTGNSRLKSLGLSCFVTLGIGCTFLPGKNWAVTDSLIAVLLSLYLLGSSGRLLYGTANELIEASLDEENNRKIREIINRTEGVLGSGELKTRRIGNGIAINACITVNSSLNIQEVAEIADLAEERLKKAYGEGIYTLIKAEPALERNCSFQKKPKISKEGGNKIIV”, the protein production result was “failed”.
